Experimental findings from patent US20200109196A1 (MOGAM INSTITUTE FOR BIOMEDICAL RESEARCH, published 2020) are described below.

For experiment [1], the target named is T1, recombinant human CEACAM-1/CD66a protein (R&D systems; Cat. No. 2244-CM) (human, UniProt P13688 35-428).
T1 construct: Bought protein; captured on anti-His (His1K) biosensors in the Octet assay, so it carries a His tag; also called HCCM1; recombinant CEACAM-1/CD66a protein
T1 sequence (looked up): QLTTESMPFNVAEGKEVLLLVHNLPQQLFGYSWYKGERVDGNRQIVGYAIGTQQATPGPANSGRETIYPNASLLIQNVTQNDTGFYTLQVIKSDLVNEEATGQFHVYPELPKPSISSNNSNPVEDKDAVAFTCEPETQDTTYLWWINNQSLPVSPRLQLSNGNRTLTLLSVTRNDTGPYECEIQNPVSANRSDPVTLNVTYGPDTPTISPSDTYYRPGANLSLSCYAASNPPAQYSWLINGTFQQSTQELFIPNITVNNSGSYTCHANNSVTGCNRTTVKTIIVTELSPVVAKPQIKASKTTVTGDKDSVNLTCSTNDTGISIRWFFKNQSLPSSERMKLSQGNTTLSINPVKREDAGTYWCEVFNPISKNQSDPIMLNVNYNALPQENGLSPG
In words: Octet QKe biolayer interferometry, anti-His (HIS1K) biosensors, antibody 6.25-400 nM. The protocol:
The last well in each row was with a sample at the antibody concentration of 0 nM. Recombinant human CEACAM1 protein (R&D Systems; Cat. No. 2244-CM) was diluted to obtain a concentration of […], and dispensed into each well of another column at 200 μl/well.
As for the washing buffer, neutralization buffer and baseline buffer, Reagent/Kinetics buffer (10×) (Fortebio; Cat. No. 18-1092) were 1:10 diluted and dispensed into each well of a column in a row at 200 μl/well, and the regeneration buffer was dispensed into each well at 200 μl/well. Greiner 96-well plate was separately prepared, Reagent/Kinetics buffer (1×) was dispensed into each well of the number of biosensors to be used in a row at 200 μl/well, and Biosensors/Anti-His (His1K) (Fortebio; Cat. No. 18-5120) cassette was installed.

In experiment [2] the target is T2, mCCM1.
T2 construct: also called mouse CCM1; mouse CEACAM1/CD66a protein (Sino Biological); not shown: the vendor's polyhistidine tag
T2 chain: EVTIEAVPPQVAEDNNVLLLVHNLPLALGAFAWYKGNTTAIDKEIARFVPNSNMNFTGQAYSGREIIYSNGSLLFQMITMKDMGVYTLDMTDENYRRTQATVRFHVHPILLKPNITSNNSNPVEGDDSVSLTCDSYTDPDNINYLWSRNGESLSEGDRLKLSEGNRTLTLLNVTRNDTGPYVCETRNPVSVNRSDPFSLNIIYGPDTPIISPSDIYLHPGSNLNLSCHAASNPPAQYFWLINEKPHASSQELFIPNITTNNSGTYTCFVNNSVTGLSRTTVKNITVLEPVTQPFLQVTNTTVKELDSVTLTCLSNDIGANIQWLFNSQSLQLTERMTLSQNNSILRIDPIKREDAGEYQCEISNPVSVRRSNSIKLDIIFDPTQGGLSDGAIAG
In words: ELISA on coated antigen (0.25 µg/ml), HRP anti-human IgG Fab, OD450. The source says: All of the recombinant human CEACAM-1/CD66a protein (R&D systems; Cat. No. 2244-CM, HCCM1), recombinant human CEACAM-5/CD66e protein (R&D systems; Cat. No. 4128-CM, HCCM5), recombinant human CEACAM-6/CD66c protein (R&D systems; Cat. No. 3934-CM, HCCM6), recombinant human CEACAM-3/CD66d protein (Sino Biological; Cat. No. 11933-H08H, HCCM3), recombinant mouse PD-1 Fc chimeric protein (R&D systems; Cat. No. 1021-PD, mPD-1-Fc), recombinant CEACAM1-Fc (IgG4) protein (Mogam, in-house production, HCCM1-Fc), recombinant human CEACAM-1/CD66a protein Bulk (R&D systems; Cat. No. 2244-CM, HCCM1 (bulk)) and mouse CEACAM1/CD66a protein (Sino Biological; Cat. No. 50571-M08H, mouse CCM1) (2.5 μg each) were dissolved in 10 ml of PBS, respectively and dispensed into a 96-well plate (Nunc; Cat. No. 467679) at 100 μl/well, which was incubated overnight at 4° C. Thereafter, each well was treated with 300 μl of 1% (v/v) bovine serum albumin, which was incubated at 37° C. for 1 hour.
The diluted antibodies were dispensed into each well coated with each protein at 100 μl/well, which was incubated at 37° C. for 1 hour. Then, each well was washed 3 times with a washing buffer prepared by diluting 10 μl of Tween 20 (Sigma-Aldrich; Cat. No. P9146) in 990 μl of PBS. Thereafter, 2 μl of HRP-conjugated human anti-IgG-Fab antibody (anti-human IgG Fab; Sigma; Cat. No. A0293) was diluted in 10 ml of PBS, added to the wells at 100 μl/well, and incubated for 1 hour.
(§1) After completion of the reaction, the wells were washed three times with the washing buffer, and 100 μl of TMB solution was added to each well to induce color development. Then, 100 μl of 2 M H₂SO₄ was added to each well to stop the reaction, and the absorbance was measured at a wavelength of 450 nm.

The target in experiment [3] is T3, HVISTA.
T3 construct: unrelated control antigen; also called human B7-H5/Gi24/VISTA protein (Sino Biological; Cat. No. 13482-H08H); not shown: the vendor's polyhistidine tag
T3 sequence (chain, as listed by the source limits assumed): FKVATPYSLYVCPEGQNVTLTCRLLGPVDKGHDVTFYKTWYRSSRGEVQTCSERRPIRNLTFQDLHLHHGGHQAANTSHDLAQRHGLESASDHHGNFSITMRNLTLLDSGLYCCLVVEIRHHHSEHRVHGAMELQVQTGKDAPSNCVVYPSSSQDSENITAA
Kind of experiment: ELISA on coated antigen (0.25 µg/ml), HRP anti-human IgG Fc, OD450.
Source text: (§2) All of the recombinant human CEACAM-1/CD66a protein (R&D systems; Cat No. 2244-CM, HCCM1), recombinant human CEACAM-5/CD66e protein (R&D systems; Cat. No. 4128-CM, HCCM5), recombinant human CEACAM-6/CD66c protein (R&D systems; Cat. No. 3934-CM, HCCM6), recombinant human CEACAM-3/CD66d protein (Sino Biological; Cat. No. 11933-H08H, HCCM3), human B7-H5/Gi24/VISTA protein (Sino Biological; Cat. No. 13482-H08H, HVISTA), recombinant human CEACAM-1/CD66a protein Bulk (R&D systems; Cat. No. 2244-CM, HCCM1 (bulk)), recombinant human CEACAM1-N domain-Kappa protein (Mogam, in-house production, HCCM1-N domain-kappa), and BSA protein (2.5 μg each) were dissolved in 10 ml of PBS, respectively, and dispensed into a 96-well plate at 100 μl/well, which was incubated at 4° C. overnight. Thereafter, each well was treated with 300 μl of 1% (v/v) bovine serum albumin, and incubated at 37° C. for 1 hour.
(§3) The diluted antibodies were dispensed into each well coated with each protein at 100 μl/well, and incubated at 37° C. for 1 hour. Then, each well was washed 3 times with a washing buffer prepared by diluting 10 μl of Tween 20 (Sigma-Aldrich; Cat. No. P9146) in 990 μl of PBS. Thereafter, 2 μl of HRP-conjugated human anti-IgG-Fc antibody (anti-human IgG Fc, Sigma Cat. No. A0170) was diluted in 10 ml of PBS, added to the wells at 100 μl/well, and incubated for 1 hour.
as §1

In experiment [4] the target is T4, BSA (bovine, UniProt P02769).
T4 construct: blank antigen; also called BSA protein; bovine serum albumin
T4 sequence (P02769 25-607 limits assumed): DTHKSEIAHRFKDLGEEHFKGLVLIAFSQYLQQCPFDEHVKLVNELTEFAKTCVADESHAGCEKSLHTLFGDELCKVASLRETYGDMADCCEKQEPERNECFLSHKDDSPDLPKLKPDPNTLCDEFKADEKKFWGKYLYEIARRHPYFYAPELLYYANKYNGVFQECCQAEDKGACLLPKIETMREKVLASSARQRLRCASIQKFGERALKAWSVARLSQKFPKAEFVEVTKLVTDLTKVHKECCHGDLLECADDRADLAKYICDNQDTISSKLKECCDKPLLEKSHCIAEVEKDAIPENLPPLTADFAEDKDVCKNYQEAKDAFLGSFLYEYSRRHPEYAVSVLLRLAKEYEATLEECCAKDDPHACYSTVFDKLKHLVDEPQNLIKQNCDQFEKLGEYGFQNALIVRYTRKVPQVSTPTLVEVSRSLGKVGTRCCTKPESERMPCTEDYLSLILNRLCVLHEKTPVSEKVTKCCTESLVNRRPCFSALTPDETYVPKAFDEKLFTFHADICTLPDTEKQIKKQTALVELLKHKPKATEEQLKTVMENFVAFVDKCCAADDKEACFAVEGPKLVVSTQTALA
Described as above.
Source text: as §2, §3, §1

B1: 4R9_H4-n20HC+4R26LC (antibody, human IgG4 S228P, lambda, V domains shown)
VH: EVQLLESGGGLVQPGGSLRLSCAASGFNFSNYAMSWVRQAPGKGLEWVSVISHGGGSIYYADSVKGRLTISRDNSKNTLYLQMNSLRAEDTAVYYCARDPTKGYAPTFDYWGQGTLVTVSS
VL: QSVLTQPPSASGTPGQRVTISCSGSSSNIGNNYVSWYQQLPGTAPKLLIYADSKRLSGVPDRFSGSKSGTSASLAISGLRSEDEADYYCGAWDGRLNGYVFGGGTKLTVLG
Usually Kd stands for a measure of binding affinity in units of concentration. As a reminder, the koff is the rate constant with which the complex falls apart. A word on the kon: it is the rate constant with which the complex forms. For the molecule B1, in experiment [1], the Kd was 0.0257 µM, the koff amounted to 0.000321 s⁻¹ and the kon was determined as 19000 M⁻¹ s⁻¹.

B2: C16 (antibody, human IgG4 S228P, lambda, V domains shown)
VH: EVQLLESGGGLVQPGGSLRLSCAASGFTFSNYSMSWVRQAPGKGLEWVSAISSDGGSKYYADSVKGRFTISRDNSKNTLYLQMNSLRAEDTAVYYCARDPRKHVDRYFDYWGQGTLVTVSS
VL: QSVLTQPPSASGTPGQRVTISCSGSSSNIGSNTVSWYQQLPGTAPKLLIYADNNRPSGVPDRFSGSKSGTSASLAISGLRSEDEADYYCGTWDYSLSGYVLGGGTKLTVLG
B2: the binding result in experiment [2], in experiment [3] and in experiment [4] was “no binding (tested: 3 µg/ml (single concentration))” each time.
